The results in this text go back to patent publication US11767343B2, “Peptide probe for recognition of G-quadruplex and use thereof in detection of G-quadruplex in cell” (Changzhi Medical College, priority 2020, dated 2023).

One assay concerns the target 3G DNA + 1G RNA. Nature of the assay: ELISA binding of G4P to immobilized biotinylated oligonucleotide. Particulars: 3/1 DNA/RNA Hybrid G4, Parallel, read-out: Kd (nM) ± SD. On the procedure:
(§1) The annealed oligonucleotides were immobilized on a streptavidin-coated plate (Sigma-Aldrich), followed by incubating with G4P or RHAU23 at the indicated concentrations. Detection of bound proteins used an anti-FLAG Mouse Monoclonal Antibody (Transgen Biotech, China), an HRP Conjugated Goat Anti-Mouse IgG (H+L) secondary antibody (Transgen Biotech, China), and a TMB ELISA Substrate (Transgen Biotech, China) according to the manufacturer's instructions. Absorbance was measured at 450 nm on a Multi-Plate Reader (Biotek, USA). Dissociation constants (Kd) were obtained from the binding curves. The standard error of mean values was calculated from three replicates.

The target of a further assay is hTel. The description is as above. The conditions noted are these: G4, Mixed parallel and antiparallel, read-out: Kd (nM) ± SD. How it is done:
as §1

Another assay has as its target MYOG. Described as above. The conditions noted are these: G4, GVBQ, read-out: Kd (nM) ± SD. On the procedure: as §1
The target in a further assay is CSTB. The assay is described as above. Particulars: G4, Parallel, read-out: Kd (nM) ± SD. On the procedure:
as §1

The target of the next assay is SPB1. The description is as above. The conditions noted are these: G4, Antiparallel, read-out: Kd (nM) ± SD. How it is done: as §1
A further assay deals with 2G DNA + 2G RNA. The assay is described as above. The conditions noted are these: 2/2 DNA/RNA Hybrid G4, Parallel, read-out: Kd (nM) ± SD. On the procedure:
as §1

The target in a further assay is NRAS RNA. The description is as above. The conditions noted are these: G4, read-out: Kd (nM) ± SD. How it is done:
as §1

The next assay deals with c-MYC. The assay is described as above. Particulars: G4, Parallel, read-out: Kd (nM) ± SD. On the procedure: as §1
Another assay concerns the target ABTB2. The assay is described as above. The conditions noted are these: G4, GVBQ, read-out: Kd (nM) ± SD. How it is done: as §1
A further assay has as its target C20orf24. Described as above. Particulars: G4, Mixed parallel and antiparallel, read-out: Kd (nM) ± SD. On the procedure:
as §1

For a further assay, the target named is HT. Described as above. Particulars: G4, Mixed parallel and antiparallel, read-out: Kd (nM) ± SD. How it is done: as §1
A further assay has as its target TBA. Described as above. The conditions noted are these: G4, Antiparallel, read-out: Kd (nM) ± SD. On the procedure: as §1
The next assay has as its target DRD3. The assay is described as above. Particulars: G4, Antiparallel, read-out: Kd (nM) ± SD. On the procedure:
as §1

Another assay concerns the target C9orf72. The description is as above. Particulars: G4, Antiparallel, read-out: Kd (nM) ± SD. How it is done:
as §1

A further assay concerns the target TERRA. The description is as above. The conditions noted are these: G4, Parallel, read-out: Kd (nM) ± SD. On the procedure: as §1
The next assay has as its target Bcl2. Described as above. The conditions noted are these: G4, Mixed parallel and antiparallel, read-out: Kd (nM) ± SD. On the procedure:
as §1

For another assay, the target named is hTel-3G. The assay is described as above. Particulars: intermolecular G4, Mixed parallel and antiparallel, read-out: Kd (nM) ± SD. How it is done:
as §1

The next assay addresses HRAS1. The assay is described as above. Particulars: G4, Antiparallel, read-out: Kd (nM) ± SD. On the procedure:
as §1

A further assay addresses TERRA3G. The assay is described as above. Particulars: intermolecular G4, Parallel, read-out: Kd (nM) ± SD. How it is done: as §1
The target of a further assay is T2B-1. The description is as above. The conditions noted are these: G4, Bulge, Parallel, read-out: Kd (nM) ± SD. How it is done: as §1
The next assay has as its system non-G4 DNAs or RNAs. Nature of the assay: ELISA binding, summary over non-G4 controls. Particulars: ssDNA, RNA hairpin, DNA: RNA heteroduplex, i-motif. How it is done:
as §1
(§2) Therefore, the following were searched for PQSs of the three well-characterized non-canonical G4s, i.e. G4s with one loop of 8-15 nucleotides (4GL15), G-vacancy-bearing G4s (GVBQ), G4 with a bulge (Bulge), respectively. The G4P had no binding to the non-G4 DNAs or RNAs, including single-stranded DNA (ssDNA), RNA hairpin, DNA: RNA heteroduplex, and i-motif.

A further assay addresses G4s. Nature of the assay: ELISA binding, summary over the 21 G4s. How it is done: as §1, §2
Assay [1] relates to parallel and nonparallel G4s. Nature of the assay: ELISA comparison of G4 binding affinity between G4P and monomeric RHAU23. Particulars: FIG. 3. On the procedure: as §1
A comparison of G4 binding affinity between G4P and a monomeric RHAU23 was further performed. A G4P comprising only one G4-binding domain was termed monomeric RHAU23.

For a further assay, the system named is DNA of G4 (GGGT)4. Nature of the assay: Non-denaturing polyacrylamide gel electrophoresis of G4 DNA binding to proteins. Particulars: for binding to G4 DNAs (new slower band): protein:DNA 2:1 and 6:1, 100 nM G4 DNA, gel with 75 mM KCl. On the procedure:
After the culture was incubated until OD reach 0.5, the culture was induced with 0.8 mM IPTG and kept for 4 h at 37° C., followed by protein extraction and purification to obtain the proteins monomer, G4P, triplex, and tetrad. The protein extraction was performed by using Capturem™ His-Tagged Purification Miniprep Kit (TAKARA).
The obtained proteins were mixed with the DNA of G4 at a molar concentration ratio of 2:1 and 6:1, respectively, where the DNA of G4 comprises a sequence of (GGGT)4 (SEQ ID NO: 74), with a concentration of 100 nM. The G4 DNAs binding to the proteins were electrophoresed in a non-denaturing polyacrylamide gel containing 75 mM KCl. […] The G4 DNAs moved slower after binding to the proteins, thereby yielding a new band.

Like-named read-outs stand apart in the source and are kept apart here.

B1: G4P: Polypeptide probe: two RHAU23 G4-binding domains, linker of three GTGSGA hexapeptides, C-terminal 3xFLAG tag, N-terminal HIS tag; SEQ ID NO: 4 (protein)
chain: MGSSHHHHHHSSGLVPRGSHMHPGHLKGREIGMWYAKKQGQKNKGTGSGAGTGSGAGTGSGAHPGHLKGREIGMWYAKKQGQKNKGTGSGADYKDHDGDYKDHDIDYKDDDDK
modifications: Fully synthetic
Consider B1, for which the dissociation constant Kd on 3G DNA + 1G RNA is 0.59 ± 0.1 nM; at hTel, 0.37 ± 0.03 nM; on MYOG, 0.82 ± 0.05 nM; on CSTB, 0.37 ± 0.03 nM; at SPB1, 2.83 ± 0.15 nM; at 2G DNA + 2G RNA it was 0.42 ± 0.06 nM. Moreover, the equilibrium dissociation constant (Kd) on NRAS RNA was 0.48 ± 0.03 nM; on c-MYC it was 0.99 ± 0.1 nM; on ABTB2 it was 0.59 ± 0.04 nM; at C20orf24 it was 0.35 ± 0.03 nM; on HT, 0.79 ± 0.05 nM; at TBA it was 1.71 ± 0.1 nM. Also, the Kd at DRD3 came out at 0.31 ± 0.03 nM; at C9orf72 it was 1.89 ± 0.21 nM; on TERRA it was 1.44 ± 0.11 nM; on Bcl2 it was 0.9 ± 0.08 nM; on hTel-3G, 0.71 ± 0.05 nM; at HRAS1 it was 3.11 ± 0.25 nM. The Kd on TERRA3G was 0.83 ± 0.05 nM; on T2B-1, 0.34 ± 0.02 nM; at G4s (5 of the 21 G4s, read-out: Kd to 5 G4s), 1 to 3 nM; at G4s (range over the 21 G4s, read-out: Kd values for these G4s) it was 0.31 to 3.11 nM. In addition, the “binding to the non-G4 DNAs or RNAs” value with non-G4 DNAs or RNAs was “no binding”. Also, the “Kd to 16 G4s” value at G4s (16 of the 21 G4s) is “sub-nM”. Also, the “discrimination between parallel and nonparallel G4s in binding” value in assay [1] was “almost no discrimination between the parallel and nonparallel G4”. The “relative affinity with G4s among the proteins” value in the assay with DNA of G4 (GGGT)4 (compared among monomer, G4P, triplex, tetrad) is “highest affinity”. For the same molecule, the “binding to G4 DNAs (new slower band)” value in the assay with DNA of G4 (GGGT)4 is “binding ability”.

B2: RHAU23: G4P comprising only one G4-binding domain RHAU23; amino acid sequence SEQ ID NO: 5 (protein)
chain: MGSSHHHHHHSSGLVPRGSHMHPGHLKGREIGMWYAKKQGQKNKGTGSGADYKDHDGDYKDHDIDYKDDDDK
modifications: Fully synthetic
With B2, the “discrimination between parallel and nonparallel G4s in binding” value in assay [1] is “only binds parallel, but not nonparallel G4s”.

B3: tetrad: Protein comprising four binding domains RHAU23; amino acid sequence SEQ ID NO: 7 (protein)
chain: MGSSHHHHHHSSGLVPRGSHMHPGHLKGREIGMWYAKKQGQKNKGTGSGAGTGSGAGTGSGAHPGHLKGREIGMWYAKKQGQKNKGTGSGAGTGSGAGTGSGAHPGHLKGREIGMWYAKKQGQKNKGTGSGAGTGSGAGTGSGAHPGHLKGREIGMWYAKKQGQKNKGTGSGADYKDHDGDYKDHDIDYKDDDDK
modifications: Fully synthetic
As for B3, in the assay on DNA of G4 (GGGT)4, the “binding to G4 DNAs (new slower band)” value was “binding ability”.

B4: triplex: Protein comprising three binding domains RHAU23; amino acid sequence SEQ ID NO: 6 (protein)
chain: MGSSHHHHHHSSGLVPRGSHMHPGHLKGREIGMWYAKKQGQKNKGTGSGAGTGSGAGTGSGAHPGHLKGREIGMWYAKKQGQKNKGTGSGAGTGSGAGTGSGAHPGHLKGREIGMWYAKKQGQKNKGTGSGADYKDHDGDYKDHDIDYKDDDDK
modifications: Fully synthetic
For B4, the “binding to G4 DNAs (new slower band)” value with DNA of G4 (GGGT)4 is listed as “binding ability”.
